{"source": "the supplement of paper PMC10567573", "parents": {"B1": {"name": "TTC32 (parent)", "chain": "YSAYIRRCACAASSDESPGSKCSP"}}, "data": [{"variants_of": "B1", "experiment": "protein stability index of a GFP-peptide fusion (GPS, HEK-293T) (PSI 1-6); higher = more stable", "conditions": "c terminus: a fixed tail appended", "values": [{"variant": "YSTYIRRCACAASSDESPGSKCSP", "note": "[A3T]", "protein stability index": 2.16}, {"variant": "YSVYIRRCACAASSDESPGSKCSP", "note": "[A3V]", "protein stability index": 2.05}, {"variant": "YSWYIRRCACAASSDESPGSKCSP", "note": "[A3W]", "protein stability index": 2.19}, {"variant": "YSYYIRRCACAASSDESPGSKCSP", "note": "[A3Y]", "protein stability index": 1.75}, {"variant": "YSAAIRRCACAASSDESPGSKCSP", "note": "[Y4A]", "protein stability index": 2.01}, {"variant": "YSACIRRCACAASSDESPGSKCSP", "note": "[Y4C]", "protein stability index": 2.4}, {"variant": "YSADIRRCACAASSDESPGSKCSP", "note": "[Y4D]", "protein stability index": 3.36}, {"variant": "YSAEIRRCACAASSDESPGSKCSP", "note": "[Y4E]", "protein stability index": 3.34}, {"variant": "YSAFIRRCACAASSDESPGSKCSP", "note": "[Y4F]", "protein stability index": 1.92}, {"variant": "YSAGIRRCACAASSDESPGSKCSP", "note": "[Y4G]", "protein stability index": 3.35}, {"variant": "YSAHIRRCACAASSDESPGSKCSP", "note": "[Y4H]", "protein stability index": 2.12}, {"variant": "YSAIIRRCACAASSDESPGSKCSP", "note": "[Y4I]", "protein stability index": 2.08}, {"variant": "YSAKIRRCACAASSDESPGSKCSP", "note": "[Y4K]", "protein stability index": 2.5}, {"variant": "YSALIRRCACAASSDESPGSKCSP", "note": "[Y4L]", "protein stability index": 2.45}, {"variant": "YSAMIRRCACAASSDESPGSKCSP", "note": "[Y4M]", "protein stability index": 2.1}, {"variant": "YSANIRRCACAASSDESPGSKCSP", "note": "[Y4N]", "protein stability index": 2.85}, {"variant": "YSAPIRRCACAASSDESPGSKCSP", "note": "[Y4P]", "protein stability index": 2.45}, {"variant": "YSAQIRRCACAASSDESPGSKCSP", "note": "[Y4Q]", "protein stability index": 2.65}, {"variant": "YSARIRRCACAASSDESPGSKCSP", "note": "[Y4R]", "protein stability index": 2.67}, {"variant": "YSASIRRCACAASSDESPGSKCSP", "note": "[Y4S]", "protein stability index": 2.29}, {"variant": "YSATIRRCACAASSDESPGSKCSP", "note": "[Y4T]", "protein stability index": 2.24}, {"variant": "YSAVIRRCACAASSDESPGSKCSP", "note": "[Y4V]", "protein stability index": 3.07}, {"variant": "YSAWIRRCACAASSDESPGSKCSP", "note": "[Y4W]", "protein stability index": 3.57}, {"variant": "YSAYARRCACAASSDESPGSKCSP", "note": "[I5A]", "protein stability index": 1.86}, {"variant": "YSAYCRRCACAASSDESPGSKCSP", "note": "[I5C]", "protein stability index": 2.15}, {"variant": "YSAYDRRCACAASSDESPGSKCSP", "note": "[I5D]", "protein stability index": 3.16}, {"variant": "YSAYERRCACAASSDESPGSKCSP", "note": "[I5E]", "protein stability index": 3.46}, {"variant": "YSAYFRRCACAASSDESPGSKCSP", "note": "[I5F]", "protein stability index": 2.51}, {"variant": "YSAYGRRCACAASSDESPGSKCSP", "note": "[I5G]", "protein stability index": 2.09}, {"variant": "YSAYHRRCACAASSDESPGSKCSP", "note": "[I5H]", "protein stability index": 2.82}, {"variant": "YSAYKRRCACAASSDESPGSKCSP", "note": "[I5K]", "protein stability index": 2.65}, {"variant": "YSAYLRRCACAASSDESPGSKCSP", "note": "[I5L]", "protein stability index": 2.12}, {"variant": "YSAYMRRCACAASSDESPGSKCSP", "note": "[I5M]", "protein stability index": 2.29}, {"variant": "YSAYNRRCACAASSDESPGSKCSP", "note": "[I5N]", "protein stability index": 3.13}, {"variant": "YSAYPRRCACAASSDESPGSKCSP", "note": "[I5P]", "protein stability index": 2.24}, {"variant": "YSAYQRRCACAASSDESPGSKCSP", "note": "[I5Q]", "protein stability index": 2.09}, {"variant": "YSAYRRRCACAASSDESPGSKCSP", "note": "[I5R]", "protein stability index": 2.27}, {"variant": "YSAYSRRCACAASSDESPGSKCSP", "note": "[I5S]", "protein stability index": 2.52}, {"variant": "YSAYTRRCACAASSDESPGSKCSP", "note": "[I5T]", "protein stability index": 2.61}, {"variant": "YSAYVRRCACAASSDESPGSKCSP", "note": "[I5V]", "protein stability index": 1.85}, {"variant": "YSAYWRRCACAASSDESPGSKCSP", "note": "[I5W]", "protein stability index": 3.7}, {"variant": "YSAYYRRCACAASSDESPGSKCSP", "note": "[I5Y]", "protein stability index": 2.45}, {"variant": "YSAYIARCACAASSDESPGSKCSP", "note": "[R6A]", "protein stability index": 2.07}, {"variant": "YSAYICRCACAASSDESPGSKCSP", "note": "[R6C]", "protein stability index": 2.26}, {"variant": "YSAYIDRCACAASSDESPGSKCSP", "note": "[R6D]", "protein stability index": 3.62}, {"variant": "YSAYIERCACAASSDESPGSKCSP", "note": "[R6E]", "protein stability index": 2.9}, {"variant": "YSAYIFRCACAASSDESPGSKCSP", "note": "[R6F]", "protein stability index": 2.64}, {"variant": "YSAYIGRCACAASSDESPGSKCSP", "note": "[R6G]", "protein stability index": 2.53}, {"variant": "YSAYIHRCACAASSDESPGSKCSP", "note": "[R6H]", "protein stability index": 1.82}, {"variant": "YSAYIIRCACAASSDESPGSKCSP", "note": "[R6I]", "protein stability index": 2.43}, {"variant": "YSAYIKRCACAASSDESPGSKCSP", "note": "[R6K]", "protein stability index": 1.97}, {"variant": "YSAYILRCACAASSDESPGSKCSP", "note": "[R6L]", "protein stability index": 2.07}, {"variant": "YSAYIMRCACAASSDESPGSKCSP", "note": "[R6M]", "protein stability index": 1.33}, {"variant": "YSAYINRCACAASSDESPGSKCSP", "note": "[R6N]", "protein stability index": 2.58}, {"variant": "YSAYIPRCACAASSDESPGSKCSP", "note": "[R6P]", "protein stability index": 2.66}, {"variant": "YSAYIQRCACAASSDESPGSKCSP", "note": "[R6Q]", "protein stability index": 2}, {"variant": "YSAYISRCACAASSDESPGSKCSP", "note": "[R6S]", "protein stability index": 2.41}, {"variant": "YSAYITRCACAASSDESPGSKCSP", "note": "[R6T]", "protein stability index": 2.08}, {"variant": "YSAYIVRCACAASSDESPGSKCSP", "note": "[R6V]", "protein stability index": 1.74}, {"variant": "YSAYIWRCACAASSDESPGSKCSP", "note": "[R6W]", "protein stability index": 3.52}, {"variant": "YSAYIYRCACAASSDESPGSKCSP", "note": "[R6Y]", "protein stability index": 2.25}, {"variant": "YSAYIRACACAASSDESPGSKCSP", "note": "[R7A]", "protein stability index": 2.17}, {"variant": "YSAYIRCCACAASSDESPGSKCSP", "note": "[R7C]", "protein stability index": 1.55}, {"variant": "YSAYIRDCACAASSDESPGSKCSP", "note": "[R7D]", "protein stability index": 3.92}, {"variant": "YSAYIRECACAASSDESPGSKCSP", "note": "[R7E]", "protein stability index": 2.81}, {"variant": "YSAYIRFCACAASSDESPGSKCSP", "note": "[R7F]", "protein stability index": 2.59}, {"variant": "YSAYIRGCACAASSDESPGSKCSP", "note": "[R7G]", "protein stability index": 2.7}, {"variant": "YSAYIRHCACAASSDESPGSKCSP", "note": "[R7H]", "protein stability index": 1.9}, {"variant": "YSAYIRICACAASSDESPGSKCSP", "note": "[R7I]", "protein stability index": 1.42}, {"variant": "YSAYIRKCACAASSDESPGSKCSP", "note": "[R7K]", "protein stability index": 2.23}, {"variant": "YSAYIRLCACAASSDESPGSKCSP", "note": "[R7L]", "protein stability index": 2.16}, {"variant": "YSAYIRMCACAASSDESPGSKCSP", "note": "[R7M]", "protein stability index": 2.14}, {"variant": "YSAYIRNCACAASSDESPGSKCSP", "note": "[R7N]", "protein stability index": 2.78}, {"variant": "YSAYIRPCACAASSDESPGSKCSP", "note": "[R7P]", "protein stability index": 3.01}, {"variant": "YSAYIRQCACAASSDESPGSKCSP", "note": "[R7Q]", "protein stability index": 2.48}, {"variant": "YSAYIRSCACAASSDESPGSKCSP", "note": "[R7S]", "protein stability index": 2.42}, {"variant": "YSAYIRTCACAASSDESPGSKCSP", "note": "[R7T]", "protein stability index": 2.08}, {"variant": "YSAYIRVCACAASSDESPGSKCSP", "note": "[R7V]", "protein stability index": 1.64}, {"variant": "YSAYIRWCACAASSDESPGSKCSP", "note": "[R7W]", "protein stability index": 2.53}, {"variant": "YSAYIRYCACAASSDESPGSKCSP", "note": "[R7Y]", "protein stability index": 2.06}, {"variant": "YSAYIRRAACAASSDESPGSKCSP", "note": "[C8A]", "protein stability index": 3.5}, {"variant": "YSAYIRRDACAASSDESPGSKCSP", "note": "[C8D]", "protein stability index": 3.89}, {"variant": "YSAYIRREACAASSDESPGSKCSP", "note": "[C8E]", "protein stability index": 3.93}, {"variant": "YSAYIRRFACAASSDESPGSKCSP", "note": "[C8F]", "protein stability index": 2}, {"variant": "YSAYIRRGACAASSDESPGSKCSP", "note": "[C8G]", "protein stability index": 2.87}, {"variant": "YSAYIRRHACAASSDESPGSKCSP", "note": "[C8H]", "protein stability index": 2.91}, {"variant": "YSAYIRRIACAASSDESPGSKCSP", "note": "[C8I]", "protein stability index": 2.21}, {"variant": "YSAYIRRKACAASSDESPGSKCSP", "note": "[C8K]", "protein stability index": 3.48}, {"variant": "YSAYIRRLACAASSDESPGSKCSP", "note": "[C8L]", "protein stability index": 2.38}, {"variant": "YSAYIRRMACAASSDESPGSKCSP", "note": "[C8M]", "protein stability index": 2.05}, {"variant": "YSAYIRRNACAASSDESPGSKCSP", "note": "[C8N]", "protein stability index": 3.41}, {"variant": "YSAYIRRPACAASSDESPGSKCSP", "note": "[C8P]", "protein stability index": 3.49}, {"variant": "YSAYIRRQACAASSDESPGSKCSP", "note": "[C8Q]", "protein stability index": 3.23}, {"variant": "YSAYIRRRACAASSDESPGSKCSP", "note": "[C8R]", "protein stability index": 2.99}]}]}
